Tests used:
[1] = target: GST-Actin binding protein 1 (Abp1) SH3 domain (mouse) (UniProt Q62418)
[2] = target: GST-Cdc42 interacting protein 4 (CIP4) SH3 domain (human) (UniProt Q15642)
[3] = target: GST-Formin Binding Protein 17 (FBP17) SH3 domain (human) (UniProt Q96RU3)
[4] = target: GST-amphiphysin I SH3 domain (human) (UniProt P49418)
[5] = target: GST-amphiphysin II SH3 domain (human) (UniProt O00499)
[6] = target: GST-cortactin SH3 domain (mouse) (UniProt Q60598)
[7] = target: GST-endophilin I SH3 domain (mouse) (UniProt Q62420)
[8] = target: GST-intersectin I SH3A domain (Xenopus laevis)
[9] = target: GST-intersectin I SH3C domain (Xenopus laevis)
[10] = target: GST-intersectin I SH3E domain (Xenopus laevis)
[11] = target: GST-p85 SH3 domain (bovine) (UniProt P23727)
[12] = target: GST-sorting-nexin 9 (SNX9) SH3 domain (human) (UniProt Q9Y5X1)
[13] = target: GST-syndapin I SH3 domain (mouse) (UniProt Q61644)
[14] = target: GST-Actin binding protein 1 (Abp1) SH3 domain (mouse) (UniProt Q62418); remark: listed apart in the source
[15] = target: GST-Cdc42 interacting protein 4 (CIP4) SH3 domain (human) (UniProt Q15642); remark: listed apart in the source
[16] = target: GST-Formin Binding Protein 17 (FBP17) SH3 domain (human) (UniProt Q96RU3); remark: listed apart in the source
[17] = target: GST-amphiphysin I SH3 domain (human) (UniProt P49418); remark: listed apart in the source
[18] = target: GST-amphiphysin II SH3 domain (human) (UniProt O00499); remark: listed apart in the source
[19] = target: GST-cortactin SH3 domain (mouse) (UniProt Q60598); remark: listed apart in the source
[20] = target: GST-endophilin I SH3 domain (mouse) (UniProt Q62420); remark: listed apart in the source
[21] = target: GST-intersectin I SH3C domain (Xenopus laevis); remark: listed apart in the source
[22] = target: GST-intersectin I SH3E domain (Xenopus laevis); remark: listed apart in the source
[23] = target: GST-p85 SH3 domain (bovine) (UniProt P23727); remark: listed apart in the source
[24] = target: GST-syndapin I SH3 domain (mouse) (UniProt Q61644); remark: listed apart in the source

GST-Formin Binding Protein 17 (FBP17) SH3 domain (human), sequence (Q96RU3 550-611): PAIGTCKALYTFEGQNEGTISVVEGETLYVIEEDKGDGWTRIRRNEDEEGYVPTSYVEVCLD
GST-Actin binding protein 1 (Abp1) SH3 domain (mouse), sequence (Q62418 377-436): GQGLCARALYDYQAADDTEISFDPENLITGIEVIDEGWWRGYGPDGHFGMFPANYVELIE
GST-amphiphysin II SH3 domain (human), sequence (O00499 520-593): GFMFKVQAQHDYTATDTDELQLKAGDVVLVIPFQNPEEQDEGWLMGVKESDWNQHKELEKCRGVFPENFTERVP
GST-endophilin I SH3 domain (mouse), sequence (Q62420 290-349): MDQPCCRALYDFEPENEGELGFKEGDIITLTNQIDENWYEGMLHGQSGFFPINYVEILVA
GST-Cdc42 interacting protein 4 (CIP4) SH3 domain (human), sequence (Q15642 540-601): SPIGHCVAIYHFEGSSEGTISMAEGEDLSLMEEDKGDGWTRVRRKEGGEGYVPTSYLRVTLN
GST-amphiphysin I SH3 domain (human), sequence (P49418 622-695): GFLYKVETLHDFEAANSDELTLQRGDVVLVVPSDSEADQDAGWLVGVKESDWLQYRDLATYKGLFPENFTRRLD
GST-cortactin SH3 domain (mouse), sequence (Q60598 488-546): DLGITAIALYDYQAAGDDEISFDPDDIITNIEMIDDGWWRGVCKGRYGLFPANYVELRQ
GST-syndapin I SH3 domain (mouse), sequence (Q61644 382-441): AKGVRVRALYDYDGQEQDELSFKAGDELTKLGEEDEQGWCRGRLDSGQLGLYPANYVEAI
GST-sorting-nexin 9 (SNX9) SH3 domain (human), sequence (Q9Y5X1 1-62): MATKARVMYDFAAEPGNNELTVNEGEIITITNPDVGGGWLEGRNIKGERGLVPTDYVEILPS

rate of dynamin GTPase activity stimulated by the GST-SH3 domain (ELIPA, 30 mM NaCl, basal rate subtracted) (μmoles Pi/mg of dyn/min) [1] | rate of dynamin GTPase activity stimulated by the GST-SH3 domain (ELIPA, 30 mM NaCl, basal rate subtracted) (μmoles Pi/mg of dyn/min) [2] | rate of dynamin GTPase activity stimulated by the GST-SH3 domain (ELIPA, 30 mM NaCl, basal rate subtracted) (μmoles Pi/mg of dyn/min) [3] | rate of dynamin GTPase activity stimulated by the GST-SH3 domain (ELIPA, 30 mM NaCl, basal rate subtracted) (μmoles Pi/mg of dyn/min) [4] | rate of dynamin GTPase activity stimulated by the GST-SH3 domain (ELIPA, 30 mM NaCl, basal rate subtracted) (μmoles Pi/mg of dyn/min) [5] | rate of dynamin GTPase activity stimulated by the GST-SH3 domain (ELIPA, 30 mM NaCl, basal rate subtracted) (μmoles Pi/mg of dyn/min) [6] | rate of dynamin GTPase activity stimulated by the GST-SH3 domain (ELIPA, 30 mM NaCl, basal rate subtracted) (μmoles Pi/mg of dyn/min) [7] | rate of dynamin GTPase activity stimulated by the GST-SH3 domain (ELIPA, 30 mM NaCl, basal rate subtracted) (μmoles Pi/mg of dyn/min) [8] | rate of dynamin GTPase activity stimulated by the GST-SH3 domain (ELIPA, 30 mM NaCl, basal rate subtracted) (μmoles Pi/mg of dyn/min) [9] | rate of dynamin GTPase activity stimulated by the GST-SH3 domain (ELIPA, 30 mM NaCl, basal rate subtracted) (μmoles Pi/mg of dyn/min) [10] | rate of dynamin GTPase activity stimulated by the GST-SH3 domain (ELIPA, 30 mM NaCl, basal rate subtracted) (μmoles Pi/mg of dyn/min) [11] | rate of dynamin GTPase activity stimulated by the GST-SH3 domain (ELIPA, 30 mM NaCl, basal rate subtracted) (μmoles Pi/mg of dyn/min) [12] | rate of dynamin GTPase activity stimulated by the GST-SH3 domain (ELIPA, 30 mM NaCl, basal rate subtracted) (μmoles Pi/mg of dyn/min) [13] | dynamin GTPase activity stimulated by the GST-SH3 domain (ELIPA, 150 mM NaCl) (μmoles Pi/mg of dynamin) [14] | dynamin GTPase activity stimulated by the GST-SH3 domain (ELIPA, 150 mM NaCl) (μmoles Pi/mg of dynamin) [15] | dynamin GTPase activity stimulated by the GST-SH3 domain (ELIPA, 150 mM NaCl) (μmoles Pi/mg of dynamin) [16] | dynamin GTPase activity stimulated by the GST-SH3 domain (ELIPA, 150 mM NaCl) (μmoles Pi/mg of dynamin) [17] | dynamin GTPase activity stimulated by the GST-SH3 domain (ELIPA, 150 mM NaCl) (μmoles Pi/mg of dynamin) [18] | dynamin GTPase activity stimulated by the GST-SH3 domain (ELIPA, 150 mM NaCl) (μmoles Pi/mg of dynamin) [19] | dynamin GTPase activity stimulated by the GST-SH3 domain (ELIPA, 150 mM NaCl) (μmoles Pi/mg of dynamin) [20] | Substance | other results
0.011 | 0 | 0.084 | 0.032 | 0.01 | 0.03 | 0.032 | 0.026 | 0 | 0.023 | 0.014 | 0.03 | 0.026 | < 0.03 | < 0.03 | < 0.03 | < 0.03 | < 0.03 | < 0.03 | < 0.03 | recombinant human dynamin I middle domain splice variant Iab (enzyme) | dynamin GTPase activity stimulated by the GST-SH3 domain (ELIPA, 150 mM NaCl) (μmoles Pi/mg of dynamin) [21]: < 0.03; dynamin GTPase activity stimulated by the GST-SH3 domain (ELIPA, 150 mM NaCl) (μmoles Pi/mg of dynamin) [22]: < 0.03; dynamin GTPase activity stimulated by the GST-SH3 domain (ELIPA, 150 mM NaCl) (μmoles Pi/mg of dynamin) [23]: < 0.03; dynamin GTPase activity stimulated by the GST-SH3 domain (ELIPA, 150 mM NaCl) (μmoles Pi/mg of dynamin) [24]: < 0.03
0.011 | 0.019 | 0.098 | 0.056 | 0.013 | 0.102 | 0.016 | 0.075 | 0.017 | 0.036 | 0.02 | 0.041 | 0.068 | < 0.03 | < 0.03 | < 0.03 | < 0.03 | < 0.03 | < 0.03 | < 0.03 | recombinant human dynamin I middle domain splice variant Ibb (enzyme) | dynamin GTPase activity stimulated by the GST-SH3 domain (ELIPA, 150 mM NaCl) (μmoles Pi/mg of dynamin) [21]: < 0.03; dynamin GTPase activity stimulated by the GST-SH3 domain (ELIPA, 150 mM NaCl) (μmoles Pi/mg of dynamin) [22]: < 0.03; dynamin GTPase activity stimulated by the GST-SH3 domain (ELIPA, 150 mM NaCl) (μmoles Pi/mg of dynamin) [23]: < 0.03; dynamin GTPase activity stimulated by the GST-SH3 domain (ELIPA, 150 mM NaCl) (μmoles Pi/mg of dynamin) [24]: < 0.03
